Reference: the nanobody polyreactivity screen of Harvey et al. (2022)

Test: yeast display, Sf9 membrane polyspecificity reagent, FACS + sequencing; frameworks hold sequencing errors
Method in brief: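 Synthetic nanobody libraries on Saccharomyces cerevisiae BJ5465 were galactose-induced for 36–48 hours, stained 1 hour at 4 °C with 10% biotinylated, detergent-solubilized Sf9 membrane reagent and enriched on streptavidin microbeads. FACS then separated cells into low and high (top ~1%) gates by anti-HA (expression) and streptavidin (reagent binding) fluorescence. Genes were colony-PCR amplified, MiSeq 2 × 250 sequenced and CDR-length filtered. A clone's polyreactivity label is that of its gate of origin.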

Sequence	polyreactivity (PSR sort gate)
QVQLVESGGGLVQAGGSLRLSCAASGRIFSVYTMRWYRQAPGKERELVATISSGGRTNYADSVKGRFTISRDNAKNTVYLQMNSLKPEDTAVYYCAADWVYPPGLKDSVHFGEYDYWGQGTQVTVSS	low polyreactivity
QVQLVESGGGLVQAGGSLRLSCAASGRTFGVNAMGWYRQAPGKERELVAAITKDSGSTNYADSVKGRFTISRDNAKNTVYLQMNSLKPEDTAVYYCAARVWVRGYYWGQGTQVTVSS	low polyreactivity
QVQLVESGGGLVQAGGSLRLSCAASGRTFPQYAMGWYRQAPGKERELVASITSRSGRTYYADSVKGRFTISRDNAKNTVYLQMNSLKPEDTAVYYCNAVSSWWYMNYWGQGTQVTVSS	high polyreactivity
QDQLVESGGGLVQAGGNLRLSCAASGRIYRYYAMGWYRQAPGKERELVATITLNTVSTYYADSVKGRFTISRDNAKNTVYVQKNSRTPEDTAVYYCAAGAVRFGAGYSRYWEDDYWGQGTQVTVSS	high polyreactivity
QVQLVESGGGLVQAGGSLRLSCAASGFTFWTYAMGWYRQAPGKERELVAAIDSGGSTYYADSVKGRFTISRDNAKNTVYLQMNSLKPEDSAVYYCNAGPSVTSGYDYDYWGQGTQVTVSS	low polyreactivity
QVQLVESGGGLVQAGGSLRLSCAASGRIFRGYAMGWYRQAPGKERELVAAIDTDTGITYYADSVKGRFTISRDNAKNTVYLQMNSLKPEDTAVYYCAAETYYAVSTGYDFDYWGQGTQVTVSS	high polyreactivity
QVQLVESCGGLVQAGGSLRLSCAASGFIFYDYDMGWYRQAPGKQRELVAAITYSGASTYYADSVKGRFTISRDNAKNTVYLQMNSLKPEDTAVFYCAAVKSRYADAVDYYYWGQGTQVTVSS	low polyreactivity
QVQLVESGGGLVQAGGSLRLSCPPSGTFSFYAMGWYRQAPGKERELVATIRSGGRTYYADSVKGRFTISRDNAKNTVYLQMNSLKPEDTAVYYCAAASTKLSGSDYDYWGQGTQVTVSS	high polyreactivity
QVQLVESGGGLVQAGGSLRLSCAASGRTFGPNAMGWYRQAPGKERELVAGISWRGTSTYYADSVKGRFTISRDNAKNTVYLQMNSLKPEDTAVYYCAKSVYGYGTLYDHWGQGTQVTVSS	high polyreactivity
QFQLVESGGGLVQAGGSLRLSCAASGSTFRGYVMGWYRQAPGKERELVAAITFSSGSTYYADSVKGRFTISRDNAKNTVYLQMNSLKPEDTAVYYCAAVGPYYRDYYYWGQGTQVTVSS	high polyreactivity
QVQLVESGGGLVQAGGSLRLSCAASGFIFYYNAMGWYRQAPGKERELVAAISSRGGSTYYADSVKGRFTISRDNAKNTVYLQMNSLKPEDTAVYYCNAKRYFRNHFRTGGMYYWGQGTQVTVSS	high polyreactivity
QVQHVESGGGLVQAGGSLRLSCAASVSIFYGYAMGWSRQAPGKERELVATIRFITGSTYYADSVKGRFTISRDNAKNTVYLQMNSRKPEDTAVYYCAAVYVGYYDNYDYWGQGTQVTVSS	low polyreactivity
QLQIVESGGGLVQAGGSLRLISAASGSTLAYYAMGWYRQEPGKERELVAAINWRTYYADSVKGRFTISRDNAMNTLYLQMNSLKPEDTAVYYCAAGYYLNKFYYWGQGTQVTVSS	high polyreactivity
QVQLVESGGGLVQAGGSLRLSCAASGRTFYSNAKGWSRQAPGKERELVAGISKRGTITYYADSVKGRFTISRDNAKNTVYLQMNSLKPEDTAVYYCAAKPPSYIVKGDGRDDYWGQGTQVTVSS	high polyreactivity
QVQLVESGGGLVQAGGSLRLSCAASGRISSYYVMGWYRQAPGKERELVAAITGGDSTNYADSVKGRFTISRDNAKNTVYLQMNSLKPEDTAVYYCNAYYWYLDDYWGQGSQVTVSS	high polyreactivity
QDQHVETGGRLVHAGCSLRISCAASGSTFTGYAMGWNRPPPGKERELVAAISSGGSTYYADSVKGRFTISRDNPKNTVYLQMNSLTPEDTAVYDCAAAPRWKASRLYYWGQCTQVTVSS	high polyreactivity
QVQLVESGGGLVQAGGSLRLSCAASGSIFRYNAMGWYRQAPGKERELVAAISQSGGRTSYADSVKGRFTISRDNAKNTVYLQMNSLKPEDTAVYYCAKRAYGYRSIYRMDYWGQGTQVTVSS	high polyreactivity
QVQLVESGGGLVQAGGSLRLSCAASGRIFLVYVMGWYRQAPAKERELVAANSWSGGSTYYADSVKGRFTISRDNAKNTVYLQMNSLKPEDTAVYYFAAYYRGRNFDYWGQATQVTVSS	high polyreactivity
QVQLVESGGGLVQAGGSLRLSCAASGSIFSRNAMGWYRQAPGKERELVAAISYSSGSTYYADSVKGRFTISRDHAKNTVYLQMNSLTPEDTAVYYCAADTTKLQGVEGDYWGQGTQVTVSS	low polyreactivity
QVQLVESGGGLVQAGGSLRLRCAPSGFIFIFNAMGWYRQAPGKERELVAAIDTSDDSTYYADSVKGRFTISRDNAKNTVYLQMNSLKPEDTAVYYCAAEELSNYEYWGQGTQVTVSS	low polyreactivity
QVQLVESGGGLVQAGGSLRLSCAASGSTFAFYDMGWYRQAPGKERELVAAISQSDGDTYYADSVKGRFTISRDNAKNTVYLQMNSLKPEDTAVYYCAAETSHNPEYERGSDYWGQGTQVTVSS	low polyreactivity
QVQLVESGGGLVQAGGSLRLSCAASGRIFDGYAIGWYRQAPGKERDLVAAISWGGGSTYYADSVKGRFTISRDNAKNTVYLQMNSLKPDDTAVYYCAGDGIWAREMDYWGQGTQVTVSS	low polyreactivity

Sequence	polyreactivity (PSR sort gate)
QDKLVDSGGGLVQAGGSLLLSCAASGFIFLNNAMGWYRQAPGKQRELVAAITWSGGSTYYADSVKGRFTISRDNAKNTVYLQMNSLKPVDTAVYYCAADGWLYYGVGFYSSRRDYYWGQGTQVTVSS	low polyreactivity
QVQLVESAGGLVQAGGSLRLSCAASGFIFGGNAMGWYRQAPGKERELVAAITARSGSTYYADSVKGRFTISRDNAKNTVYLQMNSLKPEDTAVYYCATPVYRSTYEYDYWGQGTQVTVSS	low polyreactivity
QVQLVESGGGLVQAGGSLRLSCAASGIIFGYNAMGWYRQAPGKERELVAAISTSGGSTYYADSVKGRFTISRDNAKNTVYLQMNSLKPEDTAVYYCAAGYRRTYGFNYWGQGTQVTVSS	low polyreactivity
QVQLVESGGGLVQAGGSLRLSCAASGRIFINNAMGWYRQAPGKERELVAAISSRGGSTYYADSVKGRFTISRDNAKKTVYLQMNSLKPEDTAVYYCAVDVYEPRYRRPFHHDYWGQGTQVTVSS	low polyreactivity
QVQLVESGGGLVQAGGSLRLSCAASGRIFGYYAMGWYRQAPGKERELVAAISSSGGSTYYADSVKGRFTISRDNAKNTVYLQMNSLKPEDTAVYYCAREFSDGLSGKFDYWGQGTQVTVSS	low polyreactivity
QVQHVESVGGLVQAGGTLRLSCSASGQIFEPYAMGWYRQAPGKERELVAAINSGGSTNYADSVKGRFTISRDNAKNTVYLQMNSLKPEDTAVYYCNKGQNIRQSPGDYWGLGTQVTVSS	low polyreactivity
QVQLVESGGGLVQAGGSLRLSCADSGSIFTSNGMGWYRHAPGKERELVAAITSGTSTYYADSVKGRFTISRDNAKNTVYLQMNSLKPEDTAVYYCAAGRWWVYRYARYYYWGQGTQVTVSS	high polyreactivity
QVQLVESGGGLVQAGGSLRLSCAASGFTFPDYAMGWYRQAPGKERELVAAISSDGSTYYADSVKGPFTISRDNAKNTVYLQMNSLKPEDTAVYYCAAYVVWLYGDDYWGQGTQVTVSS	low polyreactivity
QVQLVESGGGLVQAGGSLRLSCAASGSIFTLYAMGWYRQAPGKERELVAAINRSGGSTYYADSVKGRFTISRDNAKNTVYLQMNSVKPEATAVYYCNARQYTGRRYDYWGQGTQVTVSS	high polyreactivity
QVQLVESGGGLVQAGGSLRLSCAASGYARGWYRQAPGKERELVAAITSGGSTNYADSVKGRFTISRDNAKNTVYLQMNSLKPEDTAVYYCAAAYSLYGHRYDYWGQGTQVTVSS	low polyreactivity
QVQLVESRGALVQAGASLRLSCAASALTFVKNVMGWYRQAPGKERELVAAISSGGSTYADSVKGRFTISRDNAKNTVYLQMNSLKPEDTAVYYCNADFRARNYHYYPRRFKYYYWGQGTQVTVSS	high polyreactivity
QVQLVESGGGLVQAGGSLRLSCAASGRTFSRYAMGWYRQAPGKERELVAAIRGNSGNTYYADSVKGRFTISRDNAKNTVYLQMNSLKPEDTAVYYCAKPFNIWGQGTQVTVSS	high polyreactivity
QVQLVESGGGLVQAGGSLRLICSASGRTFAGYVMGWYRQAHGKERELVAAINASGGSTYYADSVKGRFTISRDNAKNTVYLQKNILKPEDTAVYYCAAARLGSDITRRYYYWGQGTQVTVSS	high polyreactivity
QVQLVESGGGLVQAGGSLRLSCAASGRTFGTNAMGWYRQAPGKERELVAAINQNGGSTYYADSVKGRFTISRDNAKNTVYLQMNSLKPEDTAVYYCAARSLDRYYHNANYYPYYYWGQGTQVTVSS	high polyreactivity
QVQHVESGGGLVQAGGSLRLSCAASGRTFNGYAMGWYRQAPGKERELVAAIRSTTGSTYYADSVKGRFTISRDNAKNTVYLQMNSLKPEETAVYYCAAAYPFYADMDYCGQGTQVTVSS	low polyreactivity
QVQLVESGGGLDQAGGRLRLSCAASGRTYSVKSMGWYRQAPGKERELVAAITSGGSTYYADSVKGRFTISRDNAKNTVYLQMNSLKPEDTAVYYCNAVGRLRRSRLRMDYWGQGTQVTVSS	high polyreactivity
QVQLVDSGGGLVQAGGRLRLSCAASGFIFGRNAMGWYRQAPGKERELVAGISSSGVRTFYADSVKGRFTISRDNAKNTVYLQMNSLKPEDNAVYYCATRGRVYPTKYSLDEDYWGQGTQVTVSS	high polyreactivity
QVQLVESGGGLVQAGGSLRLSCAASGRIFPFYVMGWYRQAHGKERELVATINWSGGSTYYADSVKGRFTISRDNAKNTVYLQMNRLKPEDTAVYYCNGAPSDDYDYWGQGTQVTVSS	low polyreactivity
QVQLVESGGGLVQAGGSLRLSCDASGSPFEWYGMGWYRQAPGKERELVDAITSGGSTNYADSVKGRFTISRDNAKNTVYLQMNCLKPEVPAVYYCNAEYKPYHYYKAWVYTYDYGYWGQGTQVTVSS	low polyreactivity
QVQLVESDGGLVQAGGSLRLSCAASGYIFGGYAMRWYRHAPGKERELVAAISYGVGSTYYADSVKGRFTISRDNAKNTVYLQMNSLKPEDTAVYYCAADVFFYVYEAYLLYYWGQGTQVTVSS	low polyreactivity
QVQLVESGGGLVQAGGSLRLSCAASGITINFYAMGWYRQAPGKERELVAAITQSGGSTYYADSVKGRFTISRDNAKNTVYLQMNRLKPEDTAVYYCAAARTGHMYYWGQGTQVTVSS	high polyreactivity
